{"source": "patent US20260027209A1", "biological_target": "human Claudin-6 (human) (UniProt P56747)", "sequence (P56747 whole entry)": "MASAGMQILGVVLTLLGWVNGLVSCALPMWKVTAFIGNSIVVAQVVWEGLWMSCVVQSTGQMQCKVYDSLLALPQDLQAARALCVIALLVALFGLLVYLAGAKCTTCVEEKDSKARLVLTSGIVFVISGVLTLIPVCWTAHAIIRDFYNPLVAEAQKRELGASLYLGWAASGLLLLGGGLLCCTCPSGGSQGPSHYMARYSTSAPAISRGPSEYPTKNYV", "test": "flow cytometry on Dubca.huCLDN6.Luc cells against Dubca cells"}
{"substance": "human CLDN6 AlexaFluor 700-conjugated antibody (R&D, Cat. No. FAB3656N)", "values": [{"measurement": "MFI fold over untransduced Dubca cells", "result": 203, "unit": "fold"}]}
